Test results from patent US20150268247A1 (UNIVERSITY OF ROCHESTER, published 2015).
Read-outs that look alike come from different tables or passages of the source.

B2: CBFβ alone (human core-binding factor β subunit isoform 2) (other)
chain: MGHHHHHHLEVLFQGPPRVVPDQRSKFENEEFFRKLSRECEIKYTGFRDRPHEERQARFQNACRDGRSEIAFVATGTNLSLQFFPASWQGEQRQTPSREYVDLEREAGKVYLKAPMILNGVCVIWKGWIDLQRLDGMGCLEFDEERAQQEDALAQQAFEEARRRTREFEDRDRSHREEMEVRVSQLLAVTGKKTTRP

Tests used:
[1] = biological target: T1, Vif/EloB/C/CBFβ quaternary complex (full-length HIV-1 HXB2 Vif(1-192) / ElonginB 1-118 / ElonginC 17 (HIV-1 HXB2; human, UniProt P69720 2-192; Q15370 2-118; P83940 18-112; Q13951 2-182)
[2] = biological target: T1, Vif/EloB/C/CBFβ quaternary complex …; assay: ITC at 30 °C, difference of ΔH between ITC buffers A and B
[3] = biological target: T2, VifC/EloB/C ternary complex (HIV-1 HXB2 Vif(95-192) / ElonginB 1-118 / ElonginC 17-112) (HIV-1 HXB2; human, UniProt P69720 95-192; Q15370 2-118; Q15369 18-112); assay: as above
[4] = biological target: B2; assay: ITC at 303.15 K in ITC Buffer A, Cul5(N) titrated to CBFβ alone
[5] = biological target: T2, VifC/EloB/C ternary complex (HIV-1 HXB2 …)
[6] = biological target: T1, Vif/EloB/C/CBFβ quaternary complex …; assay: ITC at 30 °C, HEPES (ITC buffer A)
[7] = biological target: T2, VifC/EloB/C ternary complex (HIV-1 HXB2 …); assay: ITC at 30 °C, HEPES (ITC buffer A)
[8] = biological target: T2, VifC/EloB/C ternary complex (HIV-1 HXB2 …); remark: listed apart in the source
[9] = biological target: T1, Vif/EloB/C/CBFβ quaternary complex …; remark: listed apart in the source
[10] = biological target: T2, VifC/EloB/C ternary complex (HIV-1 HXB2 …); remark: listed apart in the source
[11] = biological target: T1, Vif/EloB/C/CBFβ quaternary complex …; remark: listed apart in the source
[12] = biological target: T1, Vif/EloB/C/CBFβ quaternary complex …; remark: listed apart in the source
[13] = biological target: T2, VifC/EloB/C ternary complex (HIV-1 HXB2 …); remark: listed apart in the source
[14] = biological target: T2, VifC/EloB/C ternary complex (HIV-1 HXB2 …); remark: listed apart in the source
[15] = biological target: T1, Vif/EloB/C/CBFβ quaternary complex …; remark: listed apart in the source
[16] = biological target: T1, Vif/EloB/C/CBFβ quaternary complex …; assay: ITC at 30 °C, phosphate (ITC buffer B)
[17] = biological target: T2, VifC/EloB/C ternary complex (HIV-1 HXB2 …); assay: ITC at 30 °C, phosphate (ITC buffer B)
[18] = biological target: T1, Vif/EloB/C/CBFβ quaternary complex …; remark: listed apart in the source
[19] = biological target: T1, Vif/EloB/C/CBFβ quaternary complex …; assay: ITC at 303 K, Cul5(N) in syringe, complex in cell, ITC buffer A
[20] = biological target: T2, VifC/EloB/C ternary complex (HIV-1 HXB2 …); assay: as above
[21] = biological target: T2, VifC/EloB/C ternary complex (HIV-1 HXB2 …); assay: ITC at 303.15 K in ITC Buffer A, CBFβ titrated to VifC/EloB/C

T2 sequence (P69720 95-192, tags left off, chain 1 of 3): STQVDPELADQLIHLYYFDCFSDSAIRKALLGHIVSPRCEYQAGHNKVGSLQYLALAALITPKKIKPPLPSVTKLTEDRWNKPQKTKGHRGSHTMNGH
T2 sequence (Q15370 2-118, tags left off, chain 2 of 3): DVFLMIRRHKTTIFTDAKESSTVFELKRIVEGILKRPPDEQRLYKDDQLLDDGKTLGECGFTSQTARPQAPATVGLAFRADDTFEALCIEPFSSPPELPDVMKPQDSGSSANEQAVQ
T2 sequence (Q15369 18-112, tags left off, chain 3 of 3): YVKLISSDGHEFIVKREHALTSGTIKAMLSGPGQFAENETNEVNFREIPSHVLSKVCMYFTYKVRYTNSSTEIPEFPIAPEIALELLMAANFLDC
T1 sequence (P69720 2-192, tags left off, chain 1 of 3): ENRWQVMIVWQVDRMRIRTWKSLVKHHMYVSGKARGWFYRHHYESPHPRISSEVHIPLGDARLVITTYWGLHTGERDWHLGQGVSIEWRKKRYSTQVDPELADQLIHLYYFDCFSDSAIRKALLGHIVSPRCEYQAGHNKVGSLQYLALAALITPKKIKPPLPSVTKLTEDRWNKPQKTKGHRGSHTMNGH
T1 sequence (Q15370 2-118, tags left off, chain 2 of 3): as the sequence (Q15370 2-118, tags left off, chain 2 of 3) above
T1 sequence (P83940 18-112, tags left off, chain 3 of 3): as the sequence (Q15369 18-112, tags left off, chain 3 of 3) above

B1: Cul5(N), human Cullin5 residues 2-384 with V341R and L345D mutations (post 3C cleavage) (other)
chain: GPMHMGGSTSNLLKNKGSLQFEDKWDFMRPIVLKLLRQESVTKQQWFDLFSDVHAVCLWDDKGPAKIHQALKEDILEFIKQAQARVLSHQDDTALLKAYIVEWRKFFTQCDILPKPFCQLEITLMGKQGSNKKSNVEDSIVRKLMLDTWNESIFSNIKNRLQDSAMKLVHAERLGEAFDSQLVIGVRESYVNLCSNPEDKLQIYRDNFEKAYLDSTERFYRTQAPSYLQQNGVQNYMKYADAKLKEEEKRALRYLETRRECNSVEALMECCVNALVTSFKETILAECQGMIKRNETEKLHLMFSLMDKVPNGIEPMLKDLEEHIISAGLADMVAAAETITTDSEKYREQLDTLFNRFSKLVKEAFQDDPRFLTARDKAYKAVVNDATIFK
notes: also called Cul5(2-384)
For B1, which N [1] is on record?
The N was 1.

What about the ΔH [1] of the same binder?
The ΔH was -10100.

What about the ΔS [1] of the same binder?
The ΔS was 4.56.

What about the “ΔΔH (HEPES against phosphate buffer)” value [2] of the same binder?
Its value is 1.7 kcal/mol.

What about the “ΔΔH (HEPES against phosphate buffer)” value [3] of the same binder?
The value was 0.8 kcal/mol.

Does B1 bind [4]?
Result: no binding

And the N [5]?
The N was 0.887.

What about the ΔH [5] of the same binder?
The ΔH was -2250.

What about the ΔS [5] of the same binder?
Its ΔS is 22.9.

What about the ΔH [6] of the same binder?
Its ΔH is -9.2 kcal/mol.

And the ΔH [7]?
Its ΔH is -5.2 kcal/mol.

And the N [8]?
The N was 0.948.

And the ΔH [8]?
Its ΔH is -6430.

And the ΔS [8]?
Its ΔS is 7.96.

And the N [9]?
Its N is 1.01.

And the ΔH [9]?
Its ΔH is -8350.

And the ΔS [9]?
Its ΔS is 11.2.

What about the N [10] of the same binder?
Its N is 0.952.

And the ΔH [10]?
Its ΔH is -3750.

And the ΔS [10]?
Its ΔS is 17.4.

What about the N [11] of the same binder?
The N was 0.943.

What about the ΔH [11] of the same binder?
Its ΔH is -6310.

And the ΔS [11]?
The ΔS was 23.

What about the Kd [12] of the same binder?
Its Kd is 5 nM.

And the N [13]?
The N was 1.03.

What about the ΔH [13] of the same binder?
Its ΔH is -5250.

And the ΔS [13]?
Its ΔS is 12.4.

And the N [14]?
Its N is 1.03.

What about the ΔH [14] of the same binder?
The ΔH was -5250.

What about the ΔS [14] of the same binder?
The ΔS was 12.4.

And the N [15]?
The N was 1.01.

And the ΔH [15]?
The ΔH was -8350.

What about the ΔS [15] of the same binder?
The ΔS was 11.2.

And the ΔH [16]?
The ΔH was -7.5 kcal/mol.

And the ΔH [17]?
Its ΔH is -4.4 kcal/mol.

What about the ΔH [18] of the same binder?
The ΔH was -3970.

And the ΔS [18]?
The ΔS was 21.7.

What about the “-TΔS” value [19] of the same binder?
Its value is -2.8 kcal/mol.

What about the ΔG [19] of the same binder?
Its ΔG is -11.5 kcal/mol.

What about the ΔH [19] of the same binder?
Its ΔH is -8.8 kcal/mol.

What about the “-TΔS” value [20] of the same binder?
The value was -3.8 kcal/mol.

And the Kd [20]?
Its Kd is 327 nM.

What about the ΔG [20] of the same binder?
Its ΔG is -9 kcal/mol.

What about the ΔH [20] of the same binder?
The ΔH was -5.2 kcal/mol.

Does B2 bind [21]?
Result: no binding
